# Measurements: US20150368327A1 (YOKOHAMA CITY UNIVERSITY, published 2015)
# T1: mouse Sema 3A protein (mouse, UniProt O08665 21-772, limits assumed)
# T1 construct: Produced from mouse Sema 3A protein expressing cells; also called Mouse Sema 3A antigen
# T1 sequence (looked up): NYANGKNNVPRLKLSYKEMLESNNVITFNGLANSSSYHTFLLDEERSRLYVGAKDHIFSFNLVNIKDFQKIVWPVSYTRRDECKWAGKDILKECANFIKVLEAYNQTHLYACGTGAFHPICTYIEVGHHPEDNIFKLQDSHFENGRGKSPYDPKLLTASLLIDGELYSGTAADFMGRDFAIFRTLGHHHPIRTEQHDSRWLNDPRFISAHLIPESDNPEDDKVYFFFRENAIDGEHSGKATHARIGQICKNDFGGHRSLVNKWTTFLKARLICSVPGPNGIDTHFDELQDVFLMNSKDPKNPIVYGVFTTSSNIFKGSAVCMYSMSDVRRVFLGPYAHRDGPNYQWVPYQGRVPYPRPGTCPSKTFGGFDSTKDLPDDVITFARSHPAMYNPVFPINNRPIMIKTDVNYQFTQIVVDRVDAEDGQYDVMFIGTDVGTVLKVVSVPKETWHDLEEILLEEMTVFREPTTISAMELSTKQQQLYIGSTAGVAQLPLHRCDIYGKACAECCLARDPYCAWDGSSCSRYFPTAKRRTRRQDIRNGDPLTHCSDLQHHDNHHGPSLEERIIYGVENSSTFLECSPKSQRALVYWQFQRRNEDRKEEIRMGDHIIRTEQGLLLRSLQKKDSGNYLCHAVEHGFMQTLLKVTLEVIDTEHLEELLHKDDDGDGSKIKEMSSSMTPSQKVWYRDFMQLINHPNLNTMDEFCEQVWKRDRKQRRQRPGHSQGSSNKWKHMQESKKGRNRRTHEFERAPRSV
# B1: Anti-Sema 3A avian-mouse chimeric antibody (clone No. 4-2-derived) (antibody, mouse IgG2a)
# heavy: AVTLDESGGGLQTPGGALSLVCKASGFTFSSYPMGWVRQAPGKGLEWVAGIDDDGDSDTRYAPAVKGRATISRDNGQSTVRLQLNNLRAEDTGTYYCAKHTGIGANSAGSIDAWGHGTEVIVSSAKTTAPSVYPLAPVCGDTTGSSVTLGCLVKGYFPEPVTLTWNSGSLSSGVHTFPAVLQSDLYTLSSSVTVTSSTWPSQSITCNVAHPASSTKVDKKIEPRGPTIKPCPPCKCPAPNLLGGPSVFIFPPKIKDVLMISLSPIVTCVVVDVSEDDPDVQISWFVNNVEVHTAQTQTHREDYNSTLRVVSALPIQHQDWMSGKEFKCKVNNKDLPAPIERTISKPKGSVRAPQVYVLPPPEEEMTKKQVTLTCMVTDFMPEDIYVEWTNNGKTELNYKNTEPVLDSDGSYFMYSKLRVEKKNWVERNSYSCSVVHEGLHNHHTTKSFSRTPGK
# light: ALTQPASVSANLGGTVKITCSGGGSYTGSYYYGWYQQKSPGSALVTMIYYNNKRPSDIPSRFSGSLSGSTNTLTITGVRADDEAVYFCGSADNSGDAFGAGTTLTVLGQPKSSPSVTLFPPSSEELETNKATLVCTITDFYPGVVTVDWKVDGTPVTQGMETTQPSKQSNNKYMASSYLTLTARAWERHSSYSCQVTHEGHTVEKSLSRADCS
# notes: Avian variable regions of clone No. 4-2 with mouse IgG2a heavy and mouse lambda light constant regions; also called anti-Sema 3A avian-mouse chimeric antibody (IgG)
# Assays:
# [1] = target: bovine serum albumin (BSA) (bovine, UniProt P02769 25-607); assay: antigen solid phase ELISA: coated BSA, anti-mouse IgG2A-HRP, A450
# Experimental: The obtained avian-mouse chimeric antibody in Example 1 and the obtained humanized antibodies (Humanized-1 and Humanized-2) and avian-human chimeric antibody in Example 2 were measured for antigenic specificity by antigen solid phase ELISA with PBS buffer. The obtained avian-mouse chimeric antibody in Example 1, which was labeled with biotin, was also measured for antigenic specificity. CL18M (+) avian-mouse chimeric antibody, which served as a negative control, was also measured for antigenic specificity. Particular measurement conditions were as follows.
# Firstly, 2.5 μg/mL of antigen (mouse and human Sema 3A protein) was dispensed into a 384 Well MaxiSorp Plate (Nunc) and reacted overnight at 4° C. in order to coat the plate with the antigen. Otherwise, ovalbumin (OVA) and bovine serum albumin (BSA) were immobilized in the plate as negative controls in similar manner in order to examine specificity of antibodies. After reaction, the plate was washed three times with 50 μL/well of washing solution (PBS containing 0.05% Tween 20), to which was added 25 μL/well of blocking solution (PBS buffer containing 1% bovine serum albumin), and the mixture was reacted for 30 minutes. […] The absorbance was measured at 450 nm using Infinite M1000 (Tecan Trading AG).
# [2] = target: T1, mouse Sema 3A protein; assay: antigen solid phase ELISA: coated mouse Sema 3A (2.5 µg/mL), anti-mouse IgG2A-HRP, OD450
# Experimental: The antigen specificity of the purified antibody was measured by ELISA with PBS buffer. 2.5 μg/mL of antigen was dispensed to a 96 well Maxi Sorp Plate (Nunc) and reacted overnight at 4° C. to coat the plate with an antigen (mouse Sema 3A protein). Ovalbumin, rabbit IgG and skim milk were immobilized in the plate as negative controls in similar manner in order to examine specificity of antibodies. The next day, the plate was washed three times with 200 μL/well of washing solution (PBS containing 0.05% Tween 20), to which was added 200 μL/well of blocking solution (PBS containing 0.5% skim milk) and the mixture was reacted for 30 minutes. The plate was washed three times with 200 μL/well of washing solution, to which was added 100 μL of culture supernatant containing antibody and the mixture was reacted for one hour. The plate was washed five times with 200 μL/well of washing solution, to which was added 100 μL/well of diluent in which anti-mouse IgG2A goat antibody labeled with horseradish peroxidase (HRP) (Bethyl Laboratories, Inc.) was diluted 2000 times with PBS buffer and the mixture was reacted for one hour. […] The absorbance was measured at 450 nm using μQuantBiomolecular Spectrometer (Bio Tek Instruments, Inc.) Results are shown in FIG. 2.
# Chain of bovine serum albumin (BSA) (P02769 25-607 limits assumed): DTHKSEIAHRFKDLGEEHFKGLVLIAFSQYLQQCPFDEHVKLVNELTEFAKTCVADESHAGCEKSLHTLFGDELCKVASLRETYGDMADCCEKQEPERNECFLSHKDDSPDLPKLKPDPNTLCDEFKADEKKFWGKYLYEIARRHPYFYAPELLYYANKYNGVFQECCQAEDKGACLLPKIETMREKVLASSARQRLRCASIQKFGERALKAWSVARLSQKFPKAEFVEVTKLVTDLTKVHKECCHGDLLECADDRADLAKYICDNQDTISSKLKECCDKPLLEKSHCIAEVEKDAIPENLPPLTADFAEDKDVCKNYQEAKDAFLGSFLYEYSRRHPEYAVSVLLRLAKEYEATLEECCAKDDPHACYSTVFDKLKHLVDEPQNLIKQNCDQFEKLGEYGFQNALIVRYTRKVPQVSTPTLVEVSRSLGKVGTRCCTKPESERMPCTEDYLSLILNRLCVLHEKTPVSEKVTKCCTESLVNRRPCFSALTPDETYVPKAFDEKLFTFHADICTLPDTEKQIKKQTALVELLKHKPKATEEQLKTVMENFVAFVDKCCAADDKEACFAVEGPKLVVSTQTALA
binder,measurement,setting,value
B1,binding result,[1],no binding (tested: about 2 µg/mL)
same,EC50 (read off the curve),[2],~0.01 µg/mL
